# Assay results: the supplement of paper PMC9170038
# Test system: MS2 coat protein
# Test: apparent KD of MS2 coat protein; designed switch direction (-1 OFF switch, 1 ON switch): -1; higher = weaker reporter binding
# Summary of the method: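 For each design, the apparent KD is the median over clusters of curves fitted to normalised cluster fluorescence. Clusters held RNA switches with common flanks, transcribed on Illumina chips by stalled E. coli RNA polymerase. These were titrated with SNAP-549-labelled MS2 coat protein, doubling from 0.7 or 1.5 nM to 3 µM, without input, with 200 uM small-molecule ligand, or with an oligonucleotide input.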
# [1] = Eterna round: R95, input ligand: microRNA oligo, concentration not stated
# [2] = Eterna round: R95, input ligand: FMN 200 uM
# [3] = Eterna round: R95, input ligand: none
# [4] = input ligand: microRNA oligo, concentration not stated
sequence,measurement,setting,value
"UUUUACAUGCUGAGAUCCUACAUGAGGAUCACCCAUGUGGUCCGGAAAAUUUUGUCACCGGAUUUUGCUCGUCUUGU [salish99_S_TOV1_R5_102] (Eterna round: R97, puzzle: Sensor, turn-off variant 1)",apparent KD of MS2 coat protein,input ligand: FMN 200 uM,69.5 nM
same,apparent KD of MS2 coat protein,input ligand: none,112 nM
UUUUACCUAGGAUAUACAUUUUUUUUAUUAUUUUCAUUAUAACAUGAGGAUCACCCAUGUAGAAGGAGGAUUUU [My Design] (puzzle: Exclusion 2),apparent KD of MS2 coat protein,[1],34.7 nM
UUUUACUCAGGAUAUAUGAUGUGAAACAUGAGGAUCACCCAUGUAAUAUUAUGGAUGUAAAUAGAAGGGAGAUUUU [Mat - Exclusion 5 - JL mod - D17] (puzzle: Exclusion 5),apparent KD of MS2 coat protein,[2],58.8 nM
same,apparent KD of MS2 coat protein,[1],62.3 nM
same,apparent KD of MS2 coat protein,[3],78.4 nM
UUUUAGAGAGGAUAUAUAAAGUGAAACAUGAGGAUCACCCAUGUAAUUUUAUGGAUGUAAAUAGAAGGCUCAUUUU [Mat - Exclusion 5 - JL mod - D2] (puzzle: Exclusion 5),apparent KD of MS2 coat protein,[2],27.8 nM
same,apparent KD of MS2 coat protein,[1],34.2 nM
same,apparent KD of MS2 coat protein,[3],34.7 nM
UUUUAGAGAGGAUAUAUAUUUUAAAACAUGAGGAUCACCCAUGUAAUUUUAUGGGAGUAAAUAGAAGGCUCAUUUA [JMFs Solution 3] (puzzle: Exclusion 5),apparent KD of MS2 coat protein,[2],48.7 nM
same,apparent KD of MS2 coat protein,[1],51 nM
same,apparent KD of MS2 coat protein,[3],56.3 nM
UUUUAGAGAGGAUAUAUUAUGUGAAACAUGAGGAUCACCCAUGUAAUAUGAUGGAUGUAAAUAGAAGGCUCAUUUA [JL-ex5-3.06] (puzzle: Exclusion 5),apparent KD of MS2 coat protein,[2],34.6 nM
same,apparent KD of MS2 coat protein,[1],48.3 nM
same,apparent KD of MS2 coat protein,[3],58 nM
UUUUAGGAAGGAUAUACAUUUUUUUUAUUAUCCUCAUUAUUACAUGAGGAUCACCCAUGUAGAAGGUCCAUUUU [My Design] (puzzle: Exclusion 2),apparent KD of MS2 coat protein,[1],175 nM
"UUUUAGUAAGGAUAUGUGGUACGCUUAAAAUAGGAAGGGACACAGAAGGUACAUGAGGAUCACCCAUGUGAACC [Eternabot (L1) Solution 49] (Eterna round: R97, puzzle: Exclusion 4)",apparent KD of MS2 coat protein,input ligand: FMN 200 uM,140 nM
same,apparent KD of MS2 coat protein,input ligand: none,61.9 nM
"UUUUAGUCAGGAUAUACAUGAGGAUCACCCAUGUAAAAUUUUAAUUUAAUUUGAAGGUGUAGAAGGGACAUUUU [Ex3 #40] (Eterna round: R97, puzzle: Exclusion 3)",apparent KD of MS2 coat protein,input ligand: FMN 200 uM,25.9 nM
same,apparent KD of MS2 coat protein,input ligand: none,27.8 nM
"UUUUAGUCAGGAUAUACAUGAGGAUCACCCAUGUAAAAUUUUAAUUUAAUUUUAAGGUGUAGAAGGGACAUUUA [Ex3 #6] (Eterna round: R97, puzzle: Exclusion 3)",apparent KD of MS2 coat protein,input ligand: FMN 200 uM,28.4 nM
same,apparent KD of MS2 coat protein,input ligand: none,33.6 nM
"UUUUCACAUGAGGAUCACCCAUGUGAGGAUAUGGUUUCGCUGGCCGUAGCCAGUGGAACCAGAAGGCGCAUGAU [Mat - Exclusion 1 - JL Mod - D6] (Eterna round: R97, puzzle: Exclusion 1)",apparent KD of MS2 coat protein,input ligand: FMN 200 uM,35.3 nM
same,apparent KD of MS2 coat protein,input ligand: none,30.2 nM
UUUUCGUGAGGAUAUCAGUAGUAAAUAAAUAAAAUUACUACUGAGAAGGCACAUGAGGAUCACCCAUGUUCCUU [salish99_ex3_r3_094] (puzzle: Exclusion 4),apparent KD of MS2 coat protein,[1],13.6 nM
UUUUCUUUUGUGAGGAUAUACUUCUUUUUCUUUUUGUAGAAGGCACAUGAGGAUCACCCAUGUUUUCUUUUCUC [JR_BME4_Sub028] (puzzle: Brourd's mod of Exclusion 4),apparent KD of MS2 coat protein,[1],13.7 nM
"UUUUGAAAGUGAGGAUAUGACAUGAGGAUCACCCAUGUAAAGGGAGUUGACUAUAUAGAAAGAUAUCAGAAGGCACAAAUGUUU [JR_ExcNG2_Sub002] (Eterna round: R96, puzzle: Exclusion NG 2)",apparent KD of MS2 coat protein,input ligand: FMN 200 uM,839 nM
same,apparent KD of MS2 coat protein,[4],237 nM
same,apparent KD of MS2 coat protein,input ligand: none,321 nM
"UUUUGACAAGCGAGAUCCUACAUGAGGAUCACCCAUGUAGACCAUGGUUUCCAUGGUCUUUUUGCUCGUCUUGUGUG [jl TITIN mod 5] (Eterna round: R97, puzzle: Sensor, turn-off variant 1)",apparent KD of MS2 coat protein,input ligand: FMN 200 uM,23.2 nM
same,apparent KD of MS2 coat protein,input ligand: none,23.4 nM
"UUUUGACAUGAGGAUCACCCAUGUUAGGAUAUCUUAAGGGAUGGAACAGGGUCGGAACAGAGAAGGAGCGUGGG [EX1 B.26] (Eterna round: R97, puzzle: Exclusion 1)",apparent KD of MS2 coat protein,input ligand: FMN 200 uM,82.4 nM
same,apparent KD of MS2 coat protein,input ligand: none,47.9 nM
"UUUUGCAAGCAAAUUGUCAACAUGAGGAUCACCCAUGUGGAAGCCUUGGAGGGUGGGACCGUAAGUAGAGCUCGUUU [Eternabot (L2) Solution 34] (Eterna round: R97, puzzle: Sensor, turn-off variant 1)",apparent KD of MS2 coat protein,input ligand: FMN 200 uM,38.1 nM
same,apparent KD of MS2 coat protein,input ligand: none,39.2 nM
"UUUUGCACGCUGCGGUCCUACAUGAGGAUCACCCAUGUGGUCUGGUGGCGUGGGUCGCCGGACUUGGCUCGUCUUGU [salish99_S_TOV1_R5_036] (Eterna round: R97, puzzle: Sensor, turn-off variant 1)",apparent KD of MS2 coat protein,input ligand: FMN 200 uM,19 nM
same,apparent KD of MS2 coat protein,input ligand: none,19.1 nM
"UUUUGGCAGGCUAUUAUUAACAUGAGGAUCACCCAUGUGCAUCCAAAAUUACUUUUAGAUCUUGCUCGUCUUAUAUA [JR_STOV1_Sub086] (Eterna round: R97, puzzle: Sensor, turn-off variant 1)",apparent KD of MS2 coat protein,input ligand: FMN 200 uM,379 nM
same,apparent KD of MS2 coat protein,input ligand: none,684 nM
"UUUUUAAAUGAAGGAUAUACUUAACAUGAGGAUCACCCAUGUGGUGUUGUGAGUGAGUGAGUUUAGUAGAAGGUCAAUGAUUUU [JMF's solution 65] (Eterna round: R96, puzzle: Exclusion NG 2)",apparent KD of MS2 coat protein,input ligand: FMN 200 uM,1250 nM
same,apparent KD of MS2 coat protein,[4],196 nM
same,apparent KD of MS2 coat protein,input ligand: none,211 nM
"UUUUUACAUGAGGAUCACCCAUGUCAGGAUAUCCUUAUAUUUUAUUAUUUUAUUUUUUGGAGAAGGGACUAUUA [My solution] (Eterna round: R96, puzzle: Exclusion 1)",apparent KD of MS2 coat protein,input ligand: FMN 200 uM,362 nM
same,apparent KD of MS2 coat protein,[4],282 nM
same,apparent KD of MS2 coat protein,input ligand: none,322 nM
UUUUUACAUGAGGAUCACCCAUGUCAGGAUAUCCUUAUAUUUUAUUAUUUUAUUUUUUGGAGAAGGGACUAUUA [My solution] (puzzle: Exclusion 1),apparent KD of MS2 coat protein,[1],297 nM
UUUUUACAUGAGGAUCACCCAUGUCAGGAUAUUCUUAUAUUUUAUUAUUUUAUUUUUUGAAGAAGGGACUAUUA [My solution] (puzzle: Exclusion 1),apparent KD of MS2 coat protein,[1],99.4 nM
"UUUUUACAUGAGGAUCACCCAUGUGAGGAUAUGGAGCGCGACCGCGCGGUCGCGUACACCAGAAGGCGCAUGAU [1st #77] (Eterna round: R97, puzzle: Exclusion 1)",apparent KD of MS2 coat protein,input ligand: FMN 200 uM,243 nM
same,apparent KD of MS2 coat protein,input ligand: none,51.7 nM
"UUUUUAGAUGAAGGAUAUACUUAACAUGAGGAUCACCCAUGUGGUGUUGUGAGUGAGUGAGUUUAGUAGAAGGUCAAGUAUUUU [JMF's solution 45] (Eterna round: R96, puzzle: Exclusion NG 2)",apparent KD of MS2 coat protein,input ligand: FMN 200 uM,769 nM
same,apparent KD of MS2 coat protein,[4],377 nM
same,apparent KD of MS2 coat protein,input ligand: none,404 nM
"UUUUUAUAUGAAGGAUAUACUUAACAUGAGGAUCACCCAUGUGGUGUUGUGAGUGAGUGAGUUUAGUAGAAGGUCAAGUCUUUU [JMF's solution 36] (Eterna round: R96, puzzle: Exclusion NG 2)",apparent KD of MS2 coat protein,input ligand: FMN 200 uM,555 nM
same,apparent KD of MS2 coat protein,[4],383 nM
same,apparent KD of MS2 coat protein,input ligand: none,361 nM
"UUUUUAUAUGAAGGAUAUACUUAACAUGAGGAUCACCCAUGUGGUGUUGUGAGUGAGUGAGUUUAGUAGAAGGUCAAUAAUUUU [JMF's solution 9] (Eterna round: R96, puzzle: Exclusion NG 2)",apparent KD of MS2 coat protein,input ligand: FMN 200 uM,996 nM
same,apparent KD of MS2 coat protein,[4],180 nM
same,apparent KD of MS2 coat protein,input ligand: none,286 nM
"UUUUUAUAUGAAGGAUAUACUUAACAUGAGGAUCACCCAUGUGGUGUUGUGAGUGAGUGAGUUUAGUAGAAGGUCAAUGAUUAU [JMF's solution 59] (Eterna round: R96, puzzle: Exclusion NG 2)",apparent KD of MS2 coat protein,input ligand: FMN 200 uM,991 nM
same,apparent KD of MS2 coat protein,[4],205 nM
same,apparent KD of MS2 coat protein,input ligand: none,321 nM
"UUUUUAUAUGAAGGAUAUACUUAACAUGAGGAUCACCCAUGUGGUGUUGUGAGUGAGUGAGUUUAGUAGAAGGUCAAUGAUUCU [JMF's solution 61] (Eterna round: R96, puzzle: Exclusion NG 2)",apparent KD of MS2 coat protein,input ligand: FMN 200 uM,864 nM
same,apparent KD of MS2 coat protein,[4],299 nM
same,apparent KD of MS2 coat protein,input ligand: none,419 nM
"UUUUUAUAUGAAGGAUAUACUUAACAUGAGGAUCACCCAUGUGGUGUUGUGAGUGAGUGAGUUUAGUAGAAGGUCAAUUCUCUU [JMF's solution 81] (Eterna round: R96, puzzle: Exclusion NG 2)",apparent KD of MS2 coat protein,input ligand: FMN 200 uM,989 nM
same,apparent KD of MS2 coat protein,[4],156 nM
same,apparent KD of MS2 coat protein,input ligand: none,492 nM
"UUUUUAUAUGAAGGAUAUACUUAACAUGAGGAUCACCCAUGUGGUGUUGUGAGUGAGUGAGUUUAGUAGAAGGUCAAUUCUUUA [JMF's solution 83] (Eterna round: R96, puzzle: Exclusion NG 2)",apparent KD of MS2 coat protein,input ligand: FMN 200 uM,866 nM
same,apparent KD of MS2 coat protein,[4],443 nM
same,apparent KD of MS2 coat protein,input ligand: none,463 nM
